Where “and” joins values, the source holds several entries; their conditions need not be identical. Equal values may be shown once.
B1: Lysozyme C, P61626 (parent)
chain: MKALIVLGLVLLSVTVQGKVFERCELARTLKRLGMDGYRGISLANWMCLAKWESGYNTRATNYNAGDRSTDYGIFQINSRYWCNDGKTPGAVNACHLSCSALLQDNIADAVACAKRVVRDPQGIRAWVAWRNRCQNRDVRQYVQGCGV

Variants of: B1
Settings: Homo sapiens; pH 2.2; Thermal; DSC; Gly-HCl 0.05 M; reversible: yes; structure 1LZ1; whole UniProt chain shown

Variant | Tm | unfolding enthalpy (calorimetric)
G145A | 54.6 °C | 94.2 kcal/mol

Same assay, conditions: Homo sapiens; pH 2.6; Thermal; DSC; Gly-HCl 0.05 M; reversible: yes; structure 1LZ1; whole UniProt chain shown

Variant | Tm | unfolding enthalpy (calorimetric)
G145A | 61.6 °C | 104 kcal/mol
G86A | 62.8 °C | 103 kcal/mol
G55A | 62.4 °C | 104 kcal/mol

Same assay, conditions: Homo sapiens; pH 3.16; Thermal; DSC; Gly-HCl 0.05 M; reversible: yes; structure 1LZ1; whole UniProt chain shown

Variant | Tm | unfolding enthalpy (calorimetric)
G145A | 71.1 °C | 118 kcal/mol
G90A | 72.2 °C | 120 kcal/mol

Same assay, conditions: Homo sapiens; pH 2.67; Thermal; DSC; Gly-HCl 0.05 M; reversible: yes; structure 1LZ1; whole UniProt chain shown

Variant | Tm | unfolding enthalpy (calorimetric)
G147A | 64.9 °C | 99.7 kcal/mol

Same assay, conditions: Homo sapiens; pH 2.7; 64.9 °C; Thermal; DSC; Gly-HCl 0.05 M; reversible: yes; structure 1LZ1; whole UniProt chain shown

Variant | ddG of mutation (higher = less stable) | heat capacity change of unfolding
G147A | -0.14 kcal/mol | 1.29 kcal/mol/K
G123A | 0.62 kcal/mol | 1.36 kcal/mol/K
G86A | 0.12 kcal/mol | 1.65 kcal/mol/K
G37A | 1.77 kcal/mol | 1.58 kcal/mol/K
G34A | 1.39 kcal/mol | 1.58 kcal/mol/K
G90A | 0.36 kcal/mol | 1.43 kcal/mol/K
G66A | -0.45 kcal/mol | 1.6 kcal/mol/K

Same assay, conditions: Homo sapiens; pH 2.7; Thermal; DSC; Gly-HCl 0.05 M; reversible: yes; structure 1LZ1; whole UniProt chain shown

Variant | Tm | change of melting temperature, mutant - wild type (higher = more stable) | heat capacity change of unfolding | unfolding enthalpy (calorimetric)
G147A | 65.4 °C | 0.5 °C | 1.29 kcal/mol/K | 99.7 kcal/mol
G40A | 57.7 °C | -7.2 °C |  | 77 kcal/mol and 88.4 kcal/mol
G123A | 62.8 °C | -2.1 °C | 1.36 kcal/mol/K | 103 kcal/mol
G86A | 64.5 °C | -0.4 °C | 1.65 kcal/mol/K | 108 kcal/mol
G37A | 59.4 °C | -5.5 °C |  | 102 kcal/mol and 111 kcal/mol
G34A | 60.3 °C | -4.6 °C |  | 96.3 kcal/mol and 103 kcal/mol
G90A | 63.8 °C | -1.1 °C | 1.43 kcal/mol/K | 109 kcal/mol
G55A | 64 °C | -0.9 °C | 1.53 kcal/mol/K | 108 kcal/mol
G66A | 66.4 °C | 1.5 °C | 1.6 kcal/mol/K | 101 kcal/mol

Same assay, conditions: Homo sapiens; pH 2.79; Thermal; DSC; Gly-HCl 0.05 M; reversible: yes; structure 1LZ1; whole UniProt chain shown

Variant | Tm | unfolding enthalpy (calorimetric)
G147A | 67.1 °C | 102 kcal/mol

Same assay, conditions: Homo sapiens; pH 2.8; Thermal; DSC; Gly-HCl 0.05 M; reversible: yes; structure 1LZ1; whole UniProt chain shown

Variant | Tm | unfolding enthalpy (calorimetric)
G147A | 67.2 °C | 103 kcal/mol

Same assay, conditions: Homo sapiens; pH 2.3; Thermal; DSC; Gly-HCl 0.05 M; reversible: yes; structure 1LZ1; whole UniProt chain shown

Variant | Tm | unfolding enthalpy (calorimetric)
G123A | 56.1 °C | 90.8 kcal/mol

Same assay, conditions: Homo sapiens; pH 2.65; Thermal; DSC; Gly-HCl 0.05 M; reversible: yes; structure 1LZ1; whole UniProt chain shown

Variant | Tm | unfolding enthalpy (calorimetric)
G123A | 61.3 °C | 97.5 kcal/mol

Same assay, conditions: Homo sapiens; pH 3.2; Thermal; DSC; Gly-HCl 0.05 M; reversible: yes; structure 1LZ1; whole UniProt chain shown

Variant | Tm | unfolding enthalpy (calorimetric)
G123A | 71.8 °C | 112 kcal/mol
G66A | 75.1 °C | 117 kcal/mol

Same assay, conditions: Homo sapiens; pH 2.72; Thermal; DSC; Gly-HCl 0.05 M; reversible: yes; structure 1LZ1; whole UniProt chain shown

Variant | Tm | unfolding enthalpy (calorimetric)
G86A | 64.9 °C | 109 kcal/mol

Same assay, conditions: Homo sapiens; pH 3; Thermal; DSC; Gly-HCl 0.05 M; reversible: yes; structure 1LZ1; whole UniProt chain shown

Variant | Tm | unfolding enthalpy (calorimetric)
G86A | 69.2 °C | 114 kcal/mol

Same assay, conditions: Homo sapiens; pH 2.38; Thermal; DSC; Gly-HCl 0.05 M; reversible: yes; structure 1LZ1; whole UniProt chain shown

Variant | Tm | unfolding enthalpy (calorimetric)
G90A | 58.2 °C | 99.9 kcal/mol
G55A | 58.1 °C | 97 kcal/mol

Same assay, conditions: Homo sapiens; pH 2.64; Thermal; DSC; Gly-HCl 0.05 M; reversible: yes; structure 1LZ1; whole UniProt chain shown

Variant | Tm | unfolding enthalpy (calorimetric)
G90A | 62.6 °C | 106 kcal/mol

Same assay, conditions: Homo sapiens; pH 3.18; Thermal; DSC; Gly-HCl 0.05 M; reversible: yes; structure 1LZ1; whole UniProt chain shown

Variant | Tm | unfolding enthalpy (calorimetric)
G55A | 72.4 °C | 119 kcal/mol

Same assay, conditions: Homo sapiens; pH 2.4; Thermal; DSC; Gly-HCl 0.05 M; reversible: yes; structure 1LZ1; whole UniProt chain shown

Variant | Tm | unfolding enthalpy (calorimetric)
G66A | 61.1 °C | 94.9 kcal/mol

Same assay, conditions: Homo sapiens; pH 2.68; Thermal; DSC; Gly-HCl 0.05 M; reversible: yes; structure 1LZ1; whole UniProt chain shown

Variant | Tm | unfolding enthalpy (calorimetric)
G66A | 66 °C | 102 kcal/mol

From FireProtDB (doi:10.1002/prot.1147)
